The values that follow come from paper PMC7687367 (Immunity, 2020).

The target of the assay is T1, SARS-CoV-2 RBD, His-tagged, for antibody binding studies (SARS-CoV-2, UniProt P0DTC2).
T1 construct: source: HEK293F, transient, purified from supernatant (Ni-NTA agarose)
Kind of assay: BLI. The conditions noted are these: both partners purified.

B1: COVA1-16 VH R100bS mutant (antibody, V domains shown)
VH: QVQLVQSGAEVKKPGASVKVSCKASGYTFTSYYMHWVRQAPGQGLEWMGIINSSGGSTSYAQKFQGRVTMTRDTSTSTVYMELSSLRSEDTAVYYCARPPRNYYDSSGYYQRAEYFQHWGQGTLVTVSS
VL: DIQLTQSPSSLSASVGDRVTITCQASQDISNYLNWYQQRPGKAPKLLIYDASNLETGVPSRFSGSGSGTDFTFTISSLQPEDIATYYCQQYDNPPLTFGGGTKLEIK
In the case of B1, the binding result is recorded as “binds”.
